Source: paper doi:10.1101/2020.02.09.940833 (bioRxiv, 2020)

Biological target: SAR1B (human, UniProt Q9Y6B6 1-198)
Assay: liposome flotation

Sequence of SAR1B (Q9Y6B6 whole entry): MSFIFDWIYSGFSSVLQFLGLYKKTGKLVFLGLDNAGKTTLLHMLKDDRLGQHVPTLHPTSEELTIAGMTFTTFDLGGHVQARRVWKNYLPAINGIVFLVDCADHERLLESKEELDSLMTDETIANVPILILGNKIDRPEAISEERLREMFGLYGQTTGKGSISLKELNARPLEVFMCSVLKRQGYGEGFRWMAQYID

Binder | fold binding relative to SAR1A, with SEC31A-af added | fold recruitment relative to SAR1A
SEC23A (natural protein) MTTYLEFIQQNEERDGVRFSWNVWPSSRLEATRMVVPVAALFTPLKERPDLPPIQYEPVLCSRTTCRAVLNPLCQVDYRAKLWACNFCYQRNQFPPSYAGISELNQPAELLPQFSSIEYVVLRGPQMPLIFLYVVDTCMEDEDLQALKESMQMSLSLLPPTALVGLITFGRMVQVHELGCEGISKSYVFRGTKDLSAKQLQEMLGLSKVPLTQATRGPQVQQPPPSNRFLQPVQKIDMNLTDLLGELQRDPWPVPQGKRPLRSSGVALSIAVGLLECTFPNTGARIMMFIGGPATQGPGMVVGDELKTPIRSWHDIDKDNAKYVKKGTKHFEALANRAATTGHVIDIYACALDQTGLLEMKCCPNLTGGYMVMGDSFNTSLFKQTFQRVFTKDMHGQFKMGFGGTLEIKTSREIKISGAIGPCVSLNSKGPCVSENEIGTGGTCQWKICGLSPTTTLAIYFEVVNQHNAPIPQGGRGAIQFVTQYQHSSGQRRIRVTTIARNWADAQTQIQNIAASFDQEAAAILMARLAIYRAETEEGPDVLRWLDRQLIRLCQKFGEYHKDDPSSFRFSETFSLYPQFMFHLRRSSFLQVFNNSPDESSYYRHHFMRQDLTQSLIMIQPILYAYSFSGPPEPVLLDSSSILADRILLMDTFFQILIYHGETIAQWRKSGYQDMPEYENFRHLLQAPVDDAQEILHSRFPMPRYIDTEHGGSQARFLLSKVNPSQTHNNMYAWGQESGAPILTDDVSLQVFMDHLKKLAVSSAA | ~5 fold | ~5 fold
SEC23B (natural protein) MATYLEFIQQNEERDGVRFSWNVWPSSRLEATRMVVPLACLLTPLKERPDLPPVQYEPVLCSRPTCKAVLNPLCQVDYRAKLWACNFCFQRNQFPPAYGGISEVNQPAELMPQFSTIEYVIQRGAQSPLIFLYVVDTCLEEDDLQALKESLQMSLSLLPPDALVGLITFGRMVQVHELSCEGISKSYVFRGTKDLTAKQIQDMLGLTKPAMPMQQARPAQPQEHPFASSRFLQPVHKIDMNLTDLLGELQRDPWPVTQGKRPLRSTGVALSIAVGLLEGTFPNTGARIMLFTGGPPTQGPGMVVGDELKIPIRSWHDIEKDNARFMKKATKHYEMLANRTAANGHCIDIYACALDQTGLLEMKCCANLTGGYMVMGDSFNTSLFKQTFQRIFTKDFNGDFRMAFGATLDVKTSRELKIAGAIGPCVSLNVKGPCVSENELGVGGTSQWKICGLDPTSTLGIYFEVVNQHNTPIPQGGRGAIQFVTHYQHSSTQRRIRVTTIARNWADVQSQLRHIEAAFDQEAAAVLMARLGVFRAESEEGPDVLRWLDRQLIRLCQKFGQYNKEDPTSFRLSDSFSLYPQFMFHLRRSPFLQVFNNSPDESSYYRHHFARQDLTQSLIMIQPILYSYSFHGPPEPVLLDSSSILADRILLMDTFFQIVIYLGETIAQWRKAGYQDMPEYENFKHLLQAPLDDAQEILQARFPMPRYINTEHGGSQARFLLSKVNPSQTHNNLYAWGQETGAPILTDDVSLQVFMDHLKKLAVSSAC | ~5 fold | ~5 fold
